B1: human apo-SUN2 (residues 522-717) (domain or fragment, UniProt Q9UH99 522-717, looked up)
chain: GVTEEQVHHIVKQALQRYSEDRIGLADYALESGGASVISTRCSETYETKTALLSLFGIPLWYHSQSPRVILQPDVHPGNCWAFQGPQGFAVVRLSARIRPTAVTLEHVPKALSPNSTISSAPKDFAIFGFDEDLQQEGTLLGKFTYDQDGEPIQTFHFQAPTMATYQVVELRILTNWGHPEYTCIYRFRVHGEPAH

The target of series [1] is B1. The series can be described thus: SEC.
Series [2] deals with the molecule itself. The series can be described thus: SEC. (SEC sorts molecules by how far they enter the pores of the column.)

Regarding TQANNFARSFYPMLRYTNGPPPT (peptide, UniProt Q8WXH0 6863-6885, looked up) [6xHis-sfGFP-KASH2 polypeptide (KASH2 residues 6863-6885)], the binding result in series [1] was “binds”. What is called stoichiometry N is a count of units in the complex or per binding partner. Consider B1, for which the “stoichiometry N” value in series [2] is 3.

Values taken from PMC5544124 (Methods in enzymology, 2015).
